The experiment deals with SARS-CoV-2 nucleocapsid (N) protein, full-length (recombinant) (SARS-CoV-2, reference, UniProt P0DTC9). As to the kind of experiment: ELISA.

B1: IgG 16485 (anti-N) (antibody, V domains shown)
VH: EVQLVESGGGLVQPGGSLRLSCAASGFNIYSSSIHWVRQAPGKGLEWVAYISSYSGYTSYADSVKGRFTISADTSKNTAYLQMNSLRAEDTAVYYCARVPWYYAYSFGFFASFGGMDYWGQGTLVTVSS
VL: DIQMTQSPSSLSASVGDRVTITCRASQSVSSAVAWYQQKPGKAPKLLIYSASSLYSGVPSRFSGSRSGTDFTLTISSLQPEDFATYYCQQYSGYHFFPITFGQGTKVEIK
For orientation: EC50 means the concentration giving half of the maximal effect. Regarding B1, the EC50 came to 19 nM.

These data come from PMC8993412 (Journal of Molecular Biology, 2022).
